In patent US6855495B1, “Toso as a target for drug screening” (Rigel Pharmaceuticals, Inc., priority 1998, dated 2005):
Read-outs that look alike come from different tables or passages of the source.

Legend:
[1] = Gamen et al. 1996; cited from earlier work
Jurkat.ecoR cells [2] = experiment: PMA/Ionomycin-induced apoptosis in Jurkat.ecoR clones; assay type: cell-based, human; conditions: five pBabeMN-Toso-infected clones; 10 ng/ml PMA and 500 ng/ml Ionomycin, 24 hours
Text: However, following activation with PMA/lonomycin one third of Jurkat cells were clearly resistant to anti-Fas mAb induced apoptosis.
We further tested whether Toso expression could rescue activation-induced programmed cell death. We randomly picked five pBabeMN-Toso-infected Fas resistant Jurkat T cell clones and used these to assay the inhibitory effect of Toso on PMA/lonomycin-induced apoptosis.

Jurkat.ecoR cells [3] = experiment: staurosporine- and ceramide-induced apoptosis in Jurkat.ecoR cells; assay type: cell-based, human; conditions: 24 hours, any concentration
Description: Jurkat cells that express the receptor for ecotropic murine retroviruses (“Jurkat.ecoR”) were infected with retroviruses that express Toso and control vectors, pBabeMN-Toso, pBabeMN-lacZ and pBabeMN-Lyt-2-α′(α′ form of mouse CD8α chain) (Tagawa, et al. (1986)). Jurkat.ecOR cells were infected with pBabeMN-lacZ, pBabeMN-Lyt-2-α′, and pBabeMN-Toso. At 72 hours postinfection, infection frequency of pBabeMN-lacZ and pBabeMN-Lyt-2α′ were determined to be 45% and 58%, respectively. Jurkat cells were then cultured with 10 ng/ml anti-Fas mAb for 24 hours. After 12 or 24 hours, the cells were stained with 100 μg/ml ethidium bromide (SIGMA) and 100 μg/ml acridine orange (SIGMA). […]
Staurosporine is a bacterial alkaloid that is a broad spectrum inhibitor of protein kineses (Tamaoki and Nakano, Biotechnology, 8:732-735 (1990)) and induces programmed cell death in various cell lines and dissociated primary cells in culture (Ishizaki, et al, J. Cell Biol., 121:899-908 (1993); Jacobson, et al., Nature, 361:365-369 (1993); Raff, et al., Science. 262:695-700 (1993)). Ceramide generation is implicated in a signal transduction pathway that mediates programmed cell death induced by Fas and TNF-α (Cifone, et al., J. Exp. Med., 180:1547-1552 (1994); Obeid, et al., Science, 259:1769-1771 (1993)). pBabeMN-LacZ infected cells were counted by microscopic observation; infection frequency was determined to be 57%. […]

cFLIP = experiment: semi-quantitative RT-PCR of cFLIP mRNA expression; assay type: cell-based, human; conditions: Jurkat.ecoR cells
Text: Recently several groups have reported cFLIP is a caspase-8 inhibitor. We performed semi-quantitative RT-PCR to detect […] expression. To detect […] expression, a 1.1 kbp fragment (998-2061) of the cFLIP gene (U97074) was amplified with primers 5'-[NT] ID NO:32) and 5'-[NT] ID NO:33) for 35 cycles as described above. The sequence of the 1.1 kbp PCR product was verified using cycle sequencing ready reaction kit (Perkin Elmer, Calif. 94404, U.S.A.).

Jurkat.ecoR cells [4] = experiment: TNF-α-induced apoptosis in Jurkat.ecoR cells; assay type: cell-based, human; conditions: 1 μg/ml TNF-α with 0.1 μg/ml CHX, 12 hours, versus Lyt-2-α′
Description: The Fas receptor has homology to the TNF-α receptor, and these two receptors share analogous signaling systems as well as several intracellular mediators (Hsu, et al., Cell, 84:299-308 (1996)). The protective effect of Toso against TNF-α-induced apoptosis was tested by culturing Jurkat.ecOR cells expressing Lyt-2-α′ or Toso with 10 ng/ml of anti-Fas mAb or 1 μg/ml of TNF-α in the presence of 0.1 μg/ml of cyclohexamide (CHX) for 12 hours and apoptotic cells were counted. The infection frequency of pBabeMN-Lyt-2-α′ was determined to be 58%. […] Thus the TNF-α and Fas signaling pathways may converge at a common point that can be inhibited by Toso.

caspase-8 = experiment: Western blot of caspase-8 processing after Fas activation; assay type: cell-based, human; conditions: 50 ng/ml anti-Fas mAb, 6 hours, versus control Jurkat.ecoR cells
Description: The effect of overexpression of Toso on processing of caspase-8, which associates with FADD, was evaluated. […] To detect caspase-8, whole-cell lysates (2×10^6 cells per lane) were resolved by SDS-PAGE, transferred to an membrane and processed with goat anti-Mch5 p20 antibody (Santa Cruz Biotechnology, Inc., Santa Cruz, Calif. 95060, U.S.A.) as described above.

human cell lines = experiment: anti-Fas mAb-induced apoptosis in several human cell lines overexpressing Toso; assay type: cell-based; conditions: data not shown
Text: Toso was expressed in several human cell lines including Jurkat cells, CemT4 cells (human T cell leukemia), SupT1 cells (human T cell leukemia, a kind gift from Dr. Cleary, M. L., Stanford Univ.), Oli-Ly8 cells (human B cell line; transformed with EBV), AMK cells (human B cell line; transformed with EBV), both a gift from Dr. Negrin, R. S., Stanford Univ., Reh cells (acute lymphocytic leukemia; non T; non B), HL-60 cells (promyelocytic leukemia) and HepG2 cells (hepatoma) using pBabeMN-Toso IRES neo to allow cotranslational selection with Geneticin (GIBCO BRL).

Bcl-2 and Bcl XL = experiment: Western blot of Bcl-2 and Bcl XL expression levels in Toso expressing cells; assay type: cell-based, human; conditions: data not shown
Description: The downstream effects of Toso on known inhibitors of apoptosis, were evaluated by western blot analysis of Bcl-2 and BCI XL expression levels in Toso expressing cells. Bcl-2 overexpression can block Fas-induced apoptosis as well as staurosporine-induced apoptosis (data not shown). No change in the levels of expression of Bcl-2 or BcI XL was observed by Western blot (data not shown).

Jurkat.ecoR cells [5] = experiment: FADD-induced apoptosis in Jurkat.ecoR cells; assay type: cell-based, human; conditions: 24 hours postinfection with pBabeMN-FADD
Description: Fas-mediated apoptosis is activated through FADD. For FADD-induced apoptosis, mouse FADD (a gift from Dr. Angeles Estelles, Dept. Mol. Pharm., Stanford Univ.) was ligated into pBabeMN retroviral vector. Jurkat.ecoR cells expressing Lyt-2-α′ or Toso were infected with pBabeMN-LacZ or pBabeMN-FADD. After 24 hours infection with FADD, the cells were stained with ethidium bromide and acridine orange and counted the apoptotic cells. The effect of Toso on FADD-induced apoptosis was investigated by infecting Jurkat.ecoR cells expressing Lyt-2-α′ or Toso, with pBabeMN-LacZ or pBabeMN-FADD. The reinfection efficiency was approximately 40% using pBabeMN-LacZ. Jurkat.ecoR cells were infected with pBabeMN-Lyt-2-α′ and pBabeMN-Toso. Infection frequency of pBabeMN-Lyt-2-α′ was determined to be 72%. Jurkat.ecoR cells expressing Lyt-2-α′ or Toso were infected with pBabeMNLacZ or pBabeMN-FADD and apoptotic cells were counted at 24 hourrs postinfection. Infection frequency of pBabeMN-lacZ in Jurkat.ecoR cells expressing Lyt-2-α′ and Toso was determined to be 39% and 43%, respectively.

Jurkat.ecoR cells [6] = experiment: anti-Fas mAb-induced apoptosis in Jurkat.ecoR cells expressing the construct; assay type: cell-based, human; conditions: for anti-Fas mAb-induced apoptosis: 10 ng/ml anti-Fas mAb, 24 hours, in words
Description: Jurkat cells that express the receptor for ecotropic murine retroviruses (“Jurkat.ecoR”) were infected with retroviruses that express Toso and control vectors, pBabeMN-Toso, pBabeMN-lacZ and pBabeMN-Lyt-2-α′(α′ form of mouse CD8α chain) (Tagawa, et al. (1986)). Jurkat.ecOR cells were infected with pBabeMN-lacZ, pBabeMN-Lyt-2-α′, and pBabeMN-Toso. At 72 hours postinfection, infection frequency of pBabeMN-lacZ and pBabeMN-Lyt-2α′ were determined to be 45% and 58%, respectively. Jurkat cells were then cultured with 10 ng/ml anti-Fas mAb for 24 hours. After 12 or 24 hours, the cells were stained with 100 μg/ml ethidium bromide (SIGMA) and 100 μg/ml acridine orange (SIGMA). Apoptotic cells and non-apoptotic cells were identified with UV microscopy as described (MacGahon, et al., The End of the (Cell) Line: Methods for the Study of Apoptosis in vitro, in Methods in cell biology, L. J. Schwartz and B. A. Osborne, eds., San Diego, Calif., Academic Press, Inc., pp. 172-173 (1995)).
Jurkat.ecOR cells were infected with pBabeMN-Lyt-2-α′. HA, pBabeMN-Toso. HA, pBabeMN-TosoΔ(377-390). HA, pBabeMN-TosoΔ(334-390). HA, pBabeMN-TosoΔ(281-390).HA, pBabeMNTosoΔ(252-390).HA and pBabeMN-TosoΔ(29-187).HA. Jurkat cells were cultured with 10 ng/ml anti-Fas mAb for 24 hours and apoptotic cells were counted. […] Deletions of regions of the cytoplasmic domain of Toso from 334 to 390 still inhibited apoptosis. Moreover, a deletion of Toso lacking the entire cytoplasmic domain still retained substantial anti-apoptotic ability. Thus, the cytoplasmic domain of Toso is not absolutely required for the anti-apoptotic effects on Fas antibody-stimulated cells.

Molecule: Lyt-2: full length Lyt-2 (mouse CD8α), control [reference compound]
- massive / rapid cell death in 70Z/3 cells (70Z/3 cells; after retroviral infection, in words): did not induce rapid cell death

Molecule: DEVD-CHO
- ceramide-induced apoptosis [1]: does not inhibit

B1: Toso: novel 390-amino acid Ig superfamily type 1 membrane protein (SEQ ID NO:2), expressed from retroviral vector pBabeMN (protein, listed as Homo sapiens)
chain: MDRWLWPLYFLPVSGALRILPEVKVEGELGGSVTIKCPLPEMHVRIYLCREMAGSGTCGTVVSTTNFIKAEYKGRVTLKQYPRKNLFLVEVTQLTESDSGVYACGAGMNTDRGKTQKVTLNVHSEYEPSWEEQPMPETPKWFHLPYLFQMPAYASSSKFVTRVTTPAQRGKVPPVHHSSPTTQITHRPRVSRASSVAGDKPRTFLPSTTASKISALEGLLKPQTPSYNHHTRLHRQRALDYGSQSGREGQGFHILIPTILGLFLLALLGLVVKRAVERRKALSRRARRLAVRMRALESSQRPRGSPRPRSQNNIYSACPRRARGADAAGTGEAPVPGPGAPLPPAPLQVSESPWLHAPSLKTSCEYVSLYHQPAAMMEDSDSDDYINVPA
- PMA/Ionomycin-induced apoptosis (Jurkat.ecoR cells [2]): significant resistance
- ceramide-induced apoptosis (Jurkat.ecoR cells [3]): not resistant
- staurosporine-induced apoptosis (Jurkat.ecoR cells [3]): not resistant
- cFLIP expression (cFLIP): induced
- TNF-α-induced apoptosis (Jurkat.ecoR cells [4]): protected against TNF-α-induced apoptosis
- processed form (p20) of FLICE after Fas activation (caspase-8): greatly reduced
- apoptosis induced by anti-Fas mAb (human cell lines; all human T cell lines and B cell line Ocl-Ly8): inhibited
- protection against Fas-induced apoptosis (human cell lines; the other cell lines): no significant protection
- levels of expression of Bcl-2 or Bcl XL (Bcl-2 and Bcl XL): No change
- FADD-induced apoptosis in cells constitutively expressing the construct (Jurkat.ecoR cells [5]): failed to induce apoptosis
- dead cells after infection (70Z/3 cells; 70Z/3 cells infected with pBabeMN-Toso): about 70%
- Fas induced apoptosis in the presence of CHX (Jurkat.ecoR cells [6]; 10 ng/ml anti-Fas mAb with 0.1 μg/ml CHX, 12 hours): inhibited Fas induced apoptosis
- anti-Fas mAb-induced apoptosis (Jurkat.ecoR cells [6]): resistant to Fas-mediated apoptosis over a range of antiFas dilutions
- surviving Jurkat cells that expressed GFP (Jurkat.ecoR cells [6]; pBabeMN-Toso-IRES-GFP-infected cells, five days with 50 ng/ml anti-Fas mAb): 99.7%

B2: 4.8.HA: full-length Toso with C-terminal influenza hemagglutinin (HA) tag (protein)
chain: RILPEVKVEGELGGSVTIKCPLPEMHVRIYLCREMAGSGTCGTVVSTTNFIKAEYKGRVTLKQYPRKNLFLVEVTQLTESDSGVYACGAGMNTDRGKTQKVTLNVHSEYEPSWEEQPMPETPKWFHLPYLFQMPAYASSSKFVTRVTTPAQRGKVPPVHHSSPTTQITHRPRVSRASSVAGDKPRTFLPSTTASKISALEGLLKPQTPSYNHHTRLHRQRALDYGSQSGREGQGFHILIPTILGLFLLALLGLVVKRAVERRKALSRRARRLAVRMRALESSQRPRGSPRPRSQNNIYSACPRRARGADAAGTGEAPVPGPGAPLPPAPLQVSESPWLHAPSLKTSCEYVSLYHQPAAMMEDSDSDDYINVPA
modifications: left off: small tags and cut ends
notes: full-length Toso with C-terminal influenza hemagglutinin (HA) tag
- % Viable Cells (70Z/3 cells): 30 ± 4%
- massive / rapid cell death in 70Z/3 cells (70Z/3 cells): massive cell death was observed
- anti-Fas mAb-induced apoptosis (Jurkat.ecoR cells [6]): markedly inhibited

B3: FADD: mouse FADD expressed from the pBabeMN retroviral vector, apoptosis inducer (protein, UniProt Q61160 1-205, looked up)
FAS-associated death domain …: MDPFLVLLHSLSGSLSGNDLMELKFLCRERVSKRKLERVQSGLDLFTVLLEQNDLERGHTGLLRELLASLRRHDLLQRLDDFEAGTATAAPPGEADLQVAFDIVCDNVGRDWKRLARELKVSEAKMDGIEEKYPRSLSERVRESLKVWKNAEKKNASVAGLVKALRTCRLNLVADLVEEAQESVSKSENMSPVLRDSTVSSSETP
- apoptosis induced in control Jurkat cells (Jurkat.ecoR cells [5]): 45%
